From paper PMC11169713 (2024)

How the values were obtained:
Assay in all cases: SPR
56.a.09 mature = molecular target: 56.a.09 mature
MEDI8852 UCA = molecular target: MEDI8852 UCA
MEDI8852 mature = molecular target: MEDI8852 mature
56.a.09 UCA = molecular target: 56.a.09 UCA

B1: 28H6E11 Fab (anti-idiotype antibody) (Fab, V domains shown)
VH: QVQLQQSGPEVVRPGVSVKISCKGSGYTFTDHAMHWVKQSHAKSLEWIGVFNTYNGDTNYNQKFEDKATMTIDKSSSTAYLELARLTSEDSAIYYCVRLGLLGFYALDYWGQGTSVTVSS
VL: DVLMTQTPLSLPVSLGDQASISCRSSQSIVHSNGNTYLEWYLQKPGQSPKLLIYKVSNRFSGVPDRFSGSGSGTDFTLKISRVEAEDLGVYYCFQGSHVPLTFGAGTKLELK
B1 gave a Kd (56.a.09 mature) of 496 nM, a Kd (MEDI8852 UCA) of 0.943 nM and a Kd (MEDI8852 mature) of 941 nM. It also gave a Kd (56.a.09 UCA) of 32500 nM.
